The domain aggregation screens of Martell et al. (2025)

Assay: soluble fraction after stress (log2 fold change); higher = more stays soluble; pooled small domains, quantitative proteomics
Conditions: stress: pH 4
Summary of the method: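 Pooled custom libraries of small protein domains were subjected to pH 4 and measured by high-throughput quantitative proteomics. The log2 fold change in soluble amount per domain is reported, higher values meaning more remained soluble. This is used as a measure of aggregation propensity.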

Sequence | soluble fraction (log2)
HMSSRNLIIFYDSPQAENALLATAERYGAILLHHYRNLHGIAVAIPADKDMAQAVTYFSRQPGVRQV | 0.103
HMPVAPTYALTVKTDPPSANVRLLNSPTPYQPGVRLPSGNYDIEVTQSGYATRKESVRIADRDVALNIAL | 0.0432
HMVKPKIILADIGMITETDVTLAKASQAVLIAFNVKPSKEAKKLAEDENIKISTYNIIYEVLDFVKKSMSG | 0.0492
HMTKQIILVHVAGKVKKPDVYPLLQGSRVADAIKAAGGAKKGVELNDINLARVLIDGEQVFVGYVPE | -0.277
HMAVRLADMAAEKIRKMIIENKFDAGEPLSEMRLAEMFNVSRTPIREAIAILEQEGLLTTVHGKGAFIS | -0.637
HMNYIGADAAKNMAAADAQVDTANASFSGANLGEKNGLSYYQVDFTANGREYHYAIDAMTGTVIESSSAAS | -0.0522
HMHKIRRQTKITKSLLDQIEGIGSSRKKALLNHFGSAKAVGEAGETDLGTVKGISNSLAKKIYDFFHAT | 0.281
HMIMNLNVLANNVRRLRTAQRLSQSALASKAGLSVPAIKNLENARNEPRVNTVQVIAHALEVRLQDLFAPT | 0.18
HMIVNEQEQTFIKAMRDDDFNTILELKMKGYQPSDNVLKSLQPDISSTTFIAAAKIFQMERMLK | ≥ 0.43
HMNPSIALHDWLQSSEFKGSINLFAAALGMNPRTVEAWVYGRSTPSRRFWAKLYQITNLSRFRL | 0.22
HMFPELSEEEQIIVSLLQKQPDGLQINTLVVESNIPVNRMSGILFELEMKGIIRMAAGGVYRLL | -0.785
HMHMKTIEWDSLVLIMYKDMKYLKRINEGQSFHGKGGMLNYADLIGKTYGIRFGQYEIFEPSLEDIVMYG | -0.569
HMDGVLLDHLDGFVTTRRGVEAWLEQPTSFNKPSILLVAADGESTRRAIPSIAFGYDFASRHDIPAYDAG | -1.29
HMEEITLIAEDEGLRLDTWLTDKLKDYSRSYIQKLMEDELVLVNGKARKANYRIKTGDEIHVSIPEPE | -0.507
HMQAVDPLELRAGDFVVHEQHGIGRYVEMVQRTIGGITREYLVIEYAPAKRGQPNDRVFVPTDTLEQVS | -0.579
HMINAQETEIYRFLIEKANRLYSMVLGLKREELMTATRQFEEEVKHSSIHHLPKIYQAFSSYLELLERG | -0.207
HMEGIAEILPASVRQKYGLIGLYDALRGLHFPGNMEEIKAARQRLAFEDTLMFSLTLSMMQYS | -0.0837
HMDVQEILGALSPDEKAAIGQLTSGEKHIDQIIAATRLPAARITSALTLLQIKGYVRALPGKRFSLTEKQ | ≥ 0.43
HMGYPGLGSIGSKPLGDLLFQSKLFVKTKREFAEFKMANNNIVWGRRTQYLVRNYPLSVMEVFL | -0.348
HMRTTTGSEGMIGSIGKAKTDLAPDGKIFIHGELWDATSSSPVSAGQKIEVTQIEGLKLHVKPVL | 0.12
HMDVQPTTTKTMFYTVQQGETLFSISRKFGISVEEITKKNPLASSGLTVGMELLLPEKKEINSTIQS | -0.0195
HMSGWIATGTATSTGNDVRVRSTPDATVNNNILLTLNKGNRFEIDGQTQNGFYHIKVNDTIGWISGLYVKE | 0.0378
HMTPTVEAAKEEVLRVLASAAPRGLTRTELEAEVSFRRTKLRDTLVELERIGRIDSVGRRGNATTYRLIG | -0.0736
HMSPLDSHLGRRIALRRQQLNTSAADLEKAISMVPGSVARFEAGRQSLNATQLFTLSRALDVPVLYFFEG | -0.418
HMDDPWHNLANAIVAVAADDYRSALRNEDEGLLKSLELFFHSEWYRILTDVDADRLLGMLRRERS | -1.14

Sequence | soluble fraction (log2)
HMASSVKAPLPGVILDIKVKVGDTIKNGDTVVILEAMKMENNIHSDKDGVVKSIEVNKGDSVLEGATLLTI | -0.822
HMLLQTAVISTDIVNMRAEPTTNSSVIRKLTKGSDITINQEKDGWYKISDDQGNSGWIVTWAAKPT | -0.0639
HMPMDYFELFNIPRNANRETIKKILDQEYEKYRARVVSPVLEIRHEAELMLVEISKAKQVLLG | -0.223
HMELPADLATVLSVDDIRAIALAEVPGSTITGVELEREEGVLVYKVKFNDGSYKLYDANTGELV | -0.238
HMDGVYLKSLKQTEQHIHWSGYAQSNAWVSTLMRNLDASPWFESPLLIEIKAATINNSRSNEFDLNVRL | 0.102
HMGSLGSLLKSVRNQRGLSRQQMAQSLNIGVRAIEQIEEGERKPDLELLNRYARGLMDPSVT | -0.138
HMGPSLIRIASNPVAEVFIDGTRVGTTPFEMPADGTLKTVRLTAKDHDDLVVPLRSMKSMEIMLTLRRI | -0.136
HMDPVATLTPREREVLELMAEGRTNAGIAEAMVVTEGAVEKHIQRIFAKLGLHADGGVHRRVAAVLALLG | -0.872
HMGNIALAIARFREMIAEDPNLQPVRLHLAMALMADHQDEAARGQLEKLRSDQLPDDIRKIVDDALAALR | -0.487
HMNSTRAPYLLDFEEDAAIREARRAGLVPRIARQPSGEPVGRVILQSHDYDYPMKRGDTILITISSG | -0.797
HMRTSIWTAIAHSLRSDIGSGVYGPDDKLPTESALAARFGVNRHTVRHAIKALTDEGLVLPRRGAGVFVTS | -0.207
HMKVSKNKIVKGMGFHHVALKAVDFDASFKFYTEGLGMKFYTSWGEGNGKIAMLDLGDGGILELFA | 0.22
HMLEDIDNSIKKEIILEHYDKMLEFHGDYGAIIFRKLLHAYSKGYTGANEFRDLVNQISDKNIMRDLIESF | -1.17
HMGGYVVVGDKDGFWSVVSTPVSKAKAEELLKDTTFPKGEKGKIVSVAEAMSHKKVIGKEYLESGGT | 0.0926
HMDPPQEVWDLTRSYLDSMNRPVHGHKSPQETYLRQVKSHRLPATALWDYFMAQRFHAVHATSESAA | -0.364
HMIHMNMGQKINQLRLQKGFTLEELGNLVGVGKSTVRKWENGMIANMKRDKILLVAEALDTSPAYLMGWD | -0.462
HMASVDDILDRFKQAAKVTTDADLAKVLGLSRQSIAAARLRAKIPASWFPKMSSLFNISTEWLYRG | 0.011
HMSMTVHGALRLLQLPTIADRPYTLKEIREAYREQAQNHHPDAGGSADAMRRLNEAYQFLKERYRQA | -0.0331
HMADKGTITNQQEKILKALILFPEGASIEEIQKAADLGIDKRQFQRRLNTLIESGQINRTGKSRGTKYHTI | 0.356
HMQGWREWDYSADLYINARVGGKIEPTENSPISRVYELDEPVSVVAFTSTRYFKLSSGDYIFAEYLSAQKV | -0.18
HMNLYERFPIHELWKETFNETLDEEEHITFITSEFKPENIVLGQGFIAAPSKKDAVDWLKVIRTVLIFYDS | -1.61
HMKAPLTFVIEGKEYEAFDQYKTGAELKQLAGIPLDTELFLSISKPYQDELIENEKQVNLARPETEYFFVK | -0.494
HMAQLTPREREVLVLIAEGKSNKEIADQLNIGVRTIETHRERIMRRLNIHSVAGLTKYAIANGLVTL | 0.0239
HMGTIRAPMPGTILKINVVDGDSVTKGDVLLILESMKMENSITSPKTGSVTSVYVSEGDPVQHGETLIDL | -1.22
HMHLDIGQLVQRILADIQVGKLADGQRKLPAEPVLMERYQVTRYTLRQALKQLSNMGYTYQMHGIGTFVRQ | -0.211

Sequence | soluble fraction (log2)
HMNAVYAEERRAYILAALEKRGTVHSYELAEQMGVSRETIRRDIMELSNRGLLVKTHGGAIST | -0.352
HMPLITLSAEIQSEQIGQRLDQTLAELFPEYSRSRLKTWIEADLVKLNNQIVNIPREKVLGGEHVEITVDI | -0.792
HMVPEEEATKISVQNVGASDYNFTVKGVQANDPTLTLVRGKTYEFDVTSLGHPFWIKTQKVTGSSSQY | -0.139
HMTPVEVNARGVHVDFSKGGILLEDVVRHLILEALRASEWKRGPAAQLLGISKETLRYRMEKYRLYPP | -0.706
HMSISEADAKKIALEKVPGATDSNLRIKTDYDDGIMKYEVKIVYNEMKYEFDIDAATGTILEWESESVY | 0.277
HMVDETDVPTFTDMTLEEAQNEAKQRNLKLEITESPSDKEKDTILEQDPEPGKTVASGSTVKLTVSNGEE | 0.138
HMSINQTIEGKKQGYWIIYGNMRNLQEYLSNEVIEEGQFKNSRKEGVWRKYFPGGQMKSEITYINGRP | -0.93
HMSDMIGQNIRRLRTEKQMTQKALADKLFVTAQAVSRWENGEVEPSLSTVTEIARIFNVSADEILGI | -0.284
HMDDFITLVIHTPAHAQNLRNILESHGMEVRLEDFVSFKSPVAVAQRVKIRPKDLPLALKIIESGE | 0.126
HMQQSQLDDIKSVVGGDEGYNKLREWTQANVPDETLKAFDKILDTQDPTMIKVAVEGFAAQMRQAE | -0.508
HMNREIVVYITGAVDNPGLYRLPLDSRLDDVLKLAVLSTNADREVLNPAQKLKDGQKIVVPYIVE | -0.452
HMSLPKIVVPTDVTVSQLAKYLEVDAISIIKQLFGMGVVASLNQRLEDEIIQLIGNEFGKEIIFSE | -0.107
HMSGKWKIRILWYIAEYEVQRFGELRRRLGDITQSTLTEQLRELEQDGFVSRYVYQEVPSKVEYSLTE | -0.0562
HMDSAFVSDIRDAFDEAGVDSYRFFGTHSFKRGGVQLYRLLGVSDQEIKERGHWQTFSAYFAYVQA | -0.303
HMIKSMTGYGSAKGTVEGIEVSVELKSVNNKFLDTSIRLPRSFLFAEETIKQAVSSHISRGKVDVFVSVDS | -0.0706
HMDIGKNIQTIRYANKLTQDQVIAKLNLMGISMSKSTYAKLETNRMNIKVSELVALAKIFHTDINAF | -0.274
HMRPQELSSLNTNQMRLYNSLPEAFITAEAKDIADKLRYSERSLFRFLNESNLFTKTEHGSYAKKA | -0.585
HMFEPLTDREREVLQALADGLSDKEIAERLYISPATVRTHITAILGKLDANSRLQAVVVAARHNLVTL | -0.926
HMRAERVQITDPYIELHTGPGRGFPIFFVAPREQWISIELRHTDWFKVRAVGGQVGWVQRKQLEST | -0.295
HMKISDMIETNLKFLRGKHSISQAELAESLGIPRTTLSAYERGFVEPNIELMLKMAKYFNVSLDDLIAYN | -1.3
HMETWDQAYETIKQNILNLTYPPGMPLTEAKLAEELGMSRSPVRTALRMLQTDGLIVTDYYKSMTVKEI | -2.07
HMNNQIFGLKFRQLRKQQHITLAKAAAGITSRQSLGNWETGKGELAFEKVLLLLKKINVQPIDFLESSIS | 0.264
HMSEYTRGELVSSLEAGEVAAVSIRPNRETPTGEAQIVLSDGQHRVLYVTDVREIEELVSSYGLNPQVEK | -0.233
HMLSLGIMEADMLKTGKHTISGISKATPEQRQKIDSDIEELKKKYPEKNITSKVENDNLIVESGVTAP | 0.0639
HMSGDKKLQMNLILEFAQQNESFRTKDIEELLQIRSSRARKLISDLVTEGRLEALGENRNRRYQLI | -0.329
